Paper PMC2784926

Target: β-catenin (UniProt P35222)
Assay: GST pull-down after in vitro kinase reaction
Conditions: reference: WT His-α-catenin with CK2α; sites S641

α-catenin (from UniProt P35221) His-α-catenin S641A with CK2α
binding against the reference: stronger
